The experiment addresses native Pf AMA-1 on P. falciparum parasites (strain not specified) (Plasmodium falciparum). Nature of the experiment: cell-based or functional assay.

rat monoclonal antibody 4G2 had an inhibition of invasion of 50 to 60%.

For the origin of these results see patent US7910330.
